Biological target: cytoplasmic region of YhcB from Haemophilus ducreyi (residues 31 to 128) with I51M and L72M mutations (Haemophilus ducreyi) (UniProt Q7VLF5)
Assay: crystal structure; microbatch under paraffin oil, 2.0 M ammonium sulfate; SAD phasing of selenomethionine-labeled protein; 2.8 Å

Substance: cytoplasmic region of YhcB from Haemophilus ducreyi (residues 31 to 128) with I51M and L72M mutations (from UniProt Q7VLF5 31-128) (domain or fragment)
- stoichiometry N: 4
